Experimental data published in patent US20060159681A1 (FUNCTIONAL NEUROSCIENCE, published 2006).

B1: FLAG-BAG5(DARA) (other, not shown: small tags and cut ends)
chain: MDMGNQHPSISRLQEIQKEVKSVEQQVIGFSGLSDDKNYKKLERILTKQLFEIASVDTEGKGDIQQAAKRAAQETERLLKELEQNANHPHRIEIQNIFEEAQSLVREKIVPFYNGGNCVTDEFEEGIQDIILRLTHVKTGGKISLRKARYHTLTKICAVQEIIEDCMKKQPSLPLSEDAHPSVAKINFVMCEVNKARGVLIALLMGVNNNETCRHLSCVLSGLIADLAALDVCGRTEIRNYAREVVEDINKLLKYLDLEEEADTTKAFDLRQNHSILKIEKVLKRMREIKNELLQAQNPSELYLSSKTELQGLIGQLAEVSLEKNPCIREAARRAVIEVQTLITYIDLKEALEKRKLFACEEHPSHKAVWNVLGNLSEIQGEVLSFDGNRTDKNYIRLEELLTKQLLALAAVDPQGEEKCKAAAKQAVRLAQNILSYLDLKSDEWEY
notes: Expressed by transfection in HEK293T cells
B2: GST-BAG5(DARA) (other, not shown: a dimerising Fc or GST; large carriers; small tags and cut ends)
chain: B1 chain
notes: also called mutant BAG5(DARA)

Legend:
Hsp70 = Hsp70 (UniProt P0DMV8 1-641); assay: co-immunoprecipitation from transfected HEK293T lysate
Sequence of Hsp70 (P0DMV8 whole entry, the tested form may be a part): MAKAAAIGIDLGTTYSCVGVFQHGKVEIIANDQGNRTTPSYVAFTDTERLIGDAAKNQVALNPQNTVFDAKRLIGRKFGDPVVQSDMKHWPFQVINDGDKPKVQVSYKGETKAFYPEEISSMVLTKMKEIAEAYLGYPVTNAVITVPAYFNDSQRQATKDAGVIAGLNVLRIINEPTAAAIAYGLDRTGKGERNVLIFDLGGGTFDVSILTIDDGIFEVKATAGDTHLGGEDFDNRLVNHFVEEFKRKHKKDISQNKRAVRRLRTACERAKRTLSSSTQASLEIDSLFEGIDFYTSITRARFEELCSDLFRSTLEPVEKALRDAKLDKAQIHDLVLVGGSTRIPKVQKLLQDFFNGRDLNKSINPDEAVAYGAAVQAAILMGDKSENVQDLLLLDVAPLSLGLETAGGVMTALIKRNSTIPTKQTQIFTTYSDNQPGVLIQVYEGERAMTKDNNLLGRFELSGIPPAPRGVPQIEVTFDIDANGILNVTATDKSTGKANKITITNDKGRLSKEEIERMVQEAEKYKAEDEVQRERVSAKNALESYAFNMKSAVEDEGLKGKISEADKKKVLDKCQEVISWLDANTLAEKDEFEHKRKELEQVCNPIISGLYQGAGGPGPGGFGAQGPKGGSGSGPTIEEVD
Method: (§1) Samples were harvested in lysis-buffer (50 mM Tris-HCl pH 7.4, 150 mM NaCl, 2 mM EDTA, 1% Triton X-100) supplemented with protease inhibitors (Roche). For complete solubilization of the pellet in synphilin ubiquitinylation experiments boiling lysis-buffer with 1% SDS was used. IPs were performed overnight followed by incubation with Protein G sepharose beads (Amersham). PDAs were performed with equimolar amounts of GST- and His-fusion proteins for 1 hr (4° C.). Beads were washed once with lysis-buffer and three times with PBS (pH 7.4).
Therefore, it was tested whether BAG5 may associate with itself by co-transfecting N-terminus GFP-tagged BAG5 (GFP-BAG5) with FLAG-BAG5 in HEK293T cells. […] Indeed, both GFP-BAG5 and GFP-BAG5(DARA) co-immunoprecipitated with FLAG-BAG5(DARA) (FIG. 3E, lane 4 and 6, respectively). It was also confirmed that Hsp70 co-immunoprecipitated with FLAG-BAG5 and not FLAG-BAG5(DARA) (FIG. 3E, lanes 1, 3 and 5 vs. 2, 4 and 6). […] Similar to results from FIG. 3E, GST-BAG5 and GST-BAG5(DARA) interacted with both GFP-BAG5 and GFP-BAG5(DARA), whereas only GST-BAG5 interacted with Hsp70 (FIG. 3F). […] Therefore complexes of BAG5 which contained BAG5(DARA) were unable to bind Hsp70 and inhibited BAG5 activity.

His-Hsp70 = biological target: T1, His-Hsp70 (human, UniProt P0DMV8 1-641); assay: in vitro GST pull-down
T1 construct: Purified from E. coli (pDEST17) for the pull-down assays; also called full-length Hsp70; not shown: N-terminal hexa-histidine tag from a pDEST vector
T1 sequence (P0DMV8 whole entry): as the sequence (P0DMV8 whole entry, the tested form may be a part) above
Method: as §1
To further examine the nature of the association between parkin, Hsp70 and BAG5, in vitro pull-down experiments using GST-Hsp70, GST-BAG5, or GST-BAG5(DARA) with recombinant N-terminus His-tagged parkin were used. […] Thus, BAG5 interacted directly with parkin in the absence of Hsp70.

[1] = biological target: T2, endogenous Hsp70 in human brain lysate (human, UniProt P0DMV8 2-641); assay: GST pull-down from human brain SNpc lysate
T2 construct: Native protein in tissue lysate, detected with a monoclonal anti-Hsp70 antibody
T2 sequence (P0DMV8 2-641): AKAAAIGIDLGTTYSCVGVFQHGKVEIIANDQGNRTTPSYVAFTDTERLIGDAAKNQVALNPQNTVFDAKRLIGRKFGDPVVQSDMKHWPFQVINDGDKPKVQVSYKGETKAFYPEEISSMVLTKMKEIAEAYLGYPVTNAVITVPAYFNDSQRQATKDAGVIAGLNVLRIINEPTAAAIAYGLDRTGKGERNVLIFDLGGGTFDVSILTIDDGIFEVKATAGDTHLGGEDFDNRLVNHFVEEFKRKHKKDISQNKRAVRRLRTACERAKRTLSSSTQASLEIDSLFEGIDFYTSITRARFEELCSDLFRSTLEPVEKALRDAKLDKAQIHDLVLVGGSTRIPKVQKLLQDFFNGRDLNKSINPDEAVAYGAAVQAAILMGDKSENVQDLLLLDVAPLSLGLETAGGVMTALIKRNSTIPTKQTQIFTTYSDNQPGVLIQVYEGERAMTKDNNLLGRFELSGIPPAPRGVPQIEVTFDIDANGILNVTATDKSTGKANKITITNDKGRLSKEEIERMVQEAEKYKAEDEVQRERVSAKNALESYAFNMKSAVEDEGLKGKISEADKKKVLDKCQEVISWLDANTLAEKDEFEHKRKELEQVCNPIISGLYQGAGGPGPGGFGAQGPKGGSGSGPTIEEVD

Row | Binder | binding result (Hsp70) | binding result (His-Hsp70) | binding result [1]
1 | B1 | no binding | – | –
2 | B2 | – | no binding | no binding
